Measurements reported in paper PMC7946963 (2021).
Square brackets hold non-standard residues; d marks the D form. Ends that are not written are not given here. pS = N[C@@H](COP(=O)(O)O)C(=O)O

T1: FIP200 Claw R1573E (human)
T1 chain: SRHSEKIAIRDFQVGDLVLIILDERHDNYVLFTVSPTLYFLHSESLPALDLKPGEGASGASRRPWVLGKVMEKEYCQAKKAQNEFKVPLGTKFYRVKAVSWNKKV

T2: FIP200 Claw K1569A (human)
T2 chain: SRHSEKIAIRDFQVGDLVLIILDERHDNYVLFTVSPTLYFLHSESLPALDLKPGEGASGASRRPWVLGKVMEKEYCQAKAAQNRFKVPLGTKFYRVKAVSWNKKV

T3: FIP200 Claw F1574Q (human)
T3 chain: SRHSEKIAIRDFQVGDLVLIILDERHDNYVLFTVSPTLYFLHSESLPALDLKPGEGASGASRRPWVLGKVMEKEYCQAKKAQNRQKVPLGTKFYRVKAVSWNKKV

T4: FIP200 Claw Y1564S (human)
T4 chain: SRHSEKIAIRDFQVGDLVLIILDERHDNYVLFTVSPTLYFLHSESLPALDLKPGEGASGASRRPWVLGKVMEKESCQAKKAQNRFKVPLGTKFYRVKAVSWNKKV

T5: FIP200 Claw domain (residues 1490–1594) (human, UniProt Q8TDY2 1490-1594)
T5 chain: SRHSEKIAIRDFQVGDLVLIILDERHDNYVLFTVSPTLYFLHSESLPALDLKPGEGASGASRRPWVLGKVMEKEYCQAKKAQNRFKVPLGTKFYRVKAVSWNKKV

T6: LC3C (UniProt Q9BXW4 1-126)
T6 chain: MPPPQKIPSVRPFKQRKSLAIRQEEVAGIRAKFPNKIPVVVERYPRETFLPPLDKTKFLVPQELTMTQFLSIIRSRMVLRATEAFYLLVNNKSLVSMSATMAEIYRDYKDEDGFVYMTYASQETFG


Columns and labels:
Experiment in all cases: FP
FIP200 Claw R1573E = target: T1, FIP200 Claw R1573E
FIP200 Claw K1569A = target: T2, FIP200 Claw K1569A
FIP200 Claw F1574Q = target: T3, FIP200 Claw F1574Q
FIP200 Claw Y1564S = target: T4, FIP200 Claw Y1564S
[1] = target: T5, FIP200 Claw domain (residues 1490–1594)
1 = 1 (UniProt Q9H0R8 1-117)
1, sequence (Q9H0R8 whole entry): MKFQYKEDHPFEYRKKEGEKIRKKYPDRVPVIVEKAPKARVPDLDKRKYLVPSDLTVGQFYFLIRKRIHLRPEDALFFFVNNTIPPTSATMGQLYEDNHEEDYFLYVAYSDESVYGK

GABARAPL2 = GABARAPL2 (UniProt P60520 1-117)
GABARAPL2, sequence (P60520 whole entry): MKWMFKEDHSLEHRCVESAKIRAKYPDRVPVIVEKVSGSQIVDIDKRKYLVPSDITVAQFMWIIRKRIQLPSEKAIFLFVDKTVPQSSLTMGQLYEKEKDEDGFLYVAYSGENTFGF

LC3A = LC3A (UniProt Q9H492 1-121)
LC3C = target: T6, LC3C
LC3B = LC3B (UniProt Q9GZQ8 1-120)

Row | Kd (FIP200 Claw R1573E) | Kd (FIP200 Claw K1569A) | Kd (FIP200 Claw F1574Q) | Kd (FIP200 Claw Y1564S) | Kd [1] | Kd 1 | Kd (GABARAPL2) | Kd (LC3A) | Kd (LC3C) | Kd (LC3B) | Binder
1 | 138 µM | 105 µM | 120 µM | 79.5 µM |  |  |  |  |  |  | TASDDSDIVTLEPPK (domain or fragment) [CCPG1 FIR2 (residues 99–113), recombinant]
2 |  |  |  |  | 0.72 µM | 15.3 µM | 34.5 µM | 15.3 µM | 11 µM | 20.6 µM | TASDD[pS]DIVTLEPPK (also: N-terminal FITC in fluorescence polarisation assay only) [phospho-CCPG1 FIR2 synthetic peptide (p-CCPG1 FIR2)]
3 |  |  |  |  | 12.3 µM | 37.3 µM | 123 µM | 37.3 µM | 39.8 µM | 40.7 µM | TASDDSDIVTLEPPK (also: N-terminal FITC only in fluorescence polarisation assay form) [CCPG1 FIR2 synthetic peptide (residues 99–113)]
